We go through two molecules from patent publication US20160200782A1 (MOERAE MATRIX, published 2016).

Some targets named below: ASK1(h) (human, UniProt Q99683 649-946, limits assumed); SRPK1(h) (human, UniProt Q96SB4 1-655, limits assumed); FGFR2(h) (human, UniProt P21802 456-770, limits assumed); GRK6(h) (human, UniProt P43250 1-576, limits assumed); PKBβ(h) (human, UniProt P31751 1-481, limits assumed); CDK2/cyclinE(h) (human, UniProt P24941 1-298; P24941 1-298); IGF-1R(h), activated (human, UniProt P08069 959-1367, limits assumed).

Assay in all cases: cell-based or functional assay
The next assay deals with T1, DRAK1(h) (human, UniProt Q9UEE5 1-414, limits assumed).
T1 sequence (looked up): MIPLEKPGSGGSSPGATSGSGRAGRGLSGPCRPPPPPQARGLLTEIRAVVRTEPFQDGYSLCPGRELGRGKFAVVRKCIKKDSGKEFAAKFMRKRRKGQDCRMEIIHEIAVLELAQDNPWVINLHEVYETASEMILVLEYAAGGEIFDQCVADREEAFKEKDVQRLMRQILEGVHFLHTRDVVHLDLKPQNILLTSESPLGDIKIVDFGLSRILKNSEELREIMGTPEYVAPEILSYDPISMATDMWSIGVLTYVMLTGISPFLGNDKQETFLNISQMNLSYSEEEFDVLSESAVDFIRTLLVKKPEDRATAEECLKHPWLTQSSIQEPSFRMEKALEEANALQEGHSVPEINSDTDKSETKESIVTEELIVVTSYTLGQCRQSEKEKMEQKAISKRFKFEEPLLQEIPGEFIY

In a further assay the target is T2, ULK3(h) (human, UniProt Q6PHR2 1-472, limits assumed).
T2 sequence (looked up): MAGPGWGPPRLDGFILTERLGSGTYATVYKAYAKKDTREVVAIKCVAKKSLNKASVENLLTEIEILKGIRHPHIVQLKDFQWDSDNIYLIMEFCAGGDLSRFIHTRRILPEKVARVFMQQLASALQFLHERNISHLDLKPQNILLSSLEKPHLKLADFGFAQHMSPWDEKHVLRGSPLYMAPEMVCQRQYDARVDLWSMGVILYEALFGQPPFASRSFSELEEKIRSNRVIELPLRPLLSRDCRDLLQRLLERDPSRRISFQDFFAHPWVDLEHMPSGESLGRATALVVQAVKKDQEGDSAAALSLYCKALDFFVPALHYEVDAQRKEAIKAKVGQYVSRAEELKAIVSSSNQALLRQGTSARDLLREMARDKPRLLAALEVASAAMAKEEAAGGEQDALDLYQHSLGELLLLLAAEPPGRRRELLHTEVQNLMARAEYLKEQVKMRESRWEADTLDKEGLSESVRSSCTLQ

The target of the next assay is T3, Fms(h) (human, UniProt P07333 538-972, limits assumed).
T3 sequence (looked up): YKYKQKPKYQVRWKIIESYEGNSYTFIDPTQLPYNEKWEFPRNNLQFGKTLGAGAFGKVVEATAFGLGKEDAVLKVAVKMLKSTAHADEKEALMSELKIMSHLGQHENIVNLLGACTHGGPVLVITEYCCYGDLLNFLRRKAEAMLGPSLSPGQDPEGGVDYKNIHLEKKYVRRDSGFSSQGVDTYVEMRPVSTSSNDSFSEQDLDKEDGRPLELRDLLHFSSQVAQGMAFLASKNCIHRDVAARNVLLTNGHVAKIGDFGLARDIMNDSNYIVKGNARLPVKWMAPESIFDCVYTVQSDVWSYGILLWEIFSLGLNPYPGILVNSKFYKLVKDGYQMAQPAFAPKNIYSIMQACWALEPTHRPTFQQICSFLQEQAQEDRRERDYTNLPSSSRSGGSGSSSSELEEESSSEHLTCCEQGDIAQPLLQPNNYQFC

Another assay addresses T4, Rse(h) (human, UniProt Q06418 451-890, limits assumed).
T4 sequence (looked up): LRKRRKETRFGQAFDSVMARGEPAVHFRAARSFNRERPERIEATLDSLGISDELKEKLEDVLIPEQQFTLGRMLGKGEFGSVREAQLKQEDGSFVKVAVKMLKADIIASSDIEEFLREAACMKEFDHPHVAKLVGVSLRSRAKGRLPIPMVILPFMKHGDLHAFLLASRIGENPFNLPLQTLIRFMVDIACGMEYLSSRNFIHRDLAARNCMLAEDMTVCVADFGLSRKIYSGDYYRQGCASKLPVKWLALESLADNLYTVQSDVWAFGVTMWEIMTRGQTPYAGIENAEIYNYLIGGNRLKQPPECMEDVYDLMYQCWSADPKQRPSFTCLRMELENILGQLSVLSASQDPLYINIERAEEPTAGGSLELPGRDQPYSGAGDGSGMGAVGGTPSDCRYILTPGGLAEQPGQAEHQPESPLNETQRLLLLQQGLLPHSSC

In another assay the target is T5, DYRK2(h) (human, UniProt Q92630 1-601, limits assumed).
T5 sequence (looked up): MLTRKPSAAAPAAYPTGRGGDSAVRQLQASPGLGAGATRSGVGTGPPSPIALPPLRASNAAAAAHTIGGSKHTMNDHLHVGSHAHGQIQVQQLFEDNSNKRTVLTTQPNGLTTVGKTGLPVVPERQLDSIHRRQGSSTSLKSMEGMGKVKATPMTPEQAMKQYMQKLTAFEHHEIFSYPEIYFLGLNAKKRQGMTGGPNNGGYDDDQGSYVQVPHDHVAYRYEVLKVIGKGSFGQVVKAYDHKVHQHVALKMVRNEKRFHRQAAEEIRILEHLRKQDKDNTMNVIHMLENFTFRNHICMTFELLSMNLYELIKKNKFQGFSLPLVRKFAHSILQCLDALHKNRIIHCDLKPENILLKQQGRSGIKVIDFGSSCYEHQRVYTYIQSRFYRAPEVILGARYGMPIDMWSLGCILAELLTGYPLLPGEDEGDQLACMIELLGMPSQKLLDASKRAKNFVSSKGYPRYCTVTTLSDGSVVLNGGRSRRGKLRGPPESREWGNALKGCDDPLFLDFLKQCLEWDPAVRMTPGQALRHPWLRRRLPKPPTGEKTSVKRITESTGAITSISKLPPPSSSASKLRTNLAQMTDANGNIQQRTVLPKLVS

GRK6(h), sequence (P43250 whole entry): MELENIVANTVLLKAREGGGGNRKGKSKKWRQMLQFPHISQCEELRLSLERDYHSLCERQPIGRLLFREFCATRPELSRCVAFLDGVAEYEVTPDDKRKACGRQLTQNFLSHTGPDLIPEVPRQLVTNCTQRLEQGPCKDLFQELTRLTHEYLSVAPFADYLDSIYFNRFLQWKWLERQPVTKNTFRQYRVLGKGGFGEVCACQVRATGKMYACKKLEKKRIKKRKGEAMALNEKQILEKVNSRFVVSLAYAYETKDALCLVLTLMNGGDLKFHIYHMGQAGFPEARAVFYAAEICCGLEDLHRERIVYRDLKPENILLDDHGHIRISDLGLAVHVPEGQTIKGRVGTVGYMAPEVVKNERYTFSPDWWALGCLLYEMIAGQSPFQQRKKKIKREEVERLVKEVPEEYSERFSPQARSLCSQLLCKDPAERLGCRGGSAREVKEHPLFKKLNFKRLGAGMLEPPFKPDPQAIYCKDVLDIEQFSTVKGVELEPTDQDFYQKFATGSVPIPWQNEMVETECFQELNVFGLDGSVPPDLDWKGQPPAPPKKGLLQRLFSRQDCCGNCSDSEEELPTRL
IGF-1R(h), activated, sequence (P08069 959-1367 limits assumed): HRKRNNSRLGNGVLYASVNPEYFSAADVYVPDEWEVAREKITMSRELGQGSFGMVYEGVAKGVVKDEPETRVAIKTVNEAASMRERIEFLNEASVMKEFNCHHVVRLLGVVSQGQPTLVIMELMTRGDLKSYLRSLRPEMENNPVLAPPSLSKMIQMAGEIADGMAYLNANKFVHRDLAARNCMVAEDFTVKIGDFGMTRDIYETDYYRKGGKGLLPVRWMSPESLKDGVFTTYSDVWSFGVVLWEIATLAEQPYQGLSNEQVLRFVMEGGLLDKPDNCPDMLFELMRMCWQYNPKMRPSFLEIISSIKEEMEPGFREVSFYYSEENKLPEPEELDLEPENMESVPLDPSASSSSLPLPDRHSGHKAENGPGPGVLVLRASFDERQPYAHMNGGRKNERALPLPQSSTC
ASK1(h), sequence (Q99683 649-946 limits assumed): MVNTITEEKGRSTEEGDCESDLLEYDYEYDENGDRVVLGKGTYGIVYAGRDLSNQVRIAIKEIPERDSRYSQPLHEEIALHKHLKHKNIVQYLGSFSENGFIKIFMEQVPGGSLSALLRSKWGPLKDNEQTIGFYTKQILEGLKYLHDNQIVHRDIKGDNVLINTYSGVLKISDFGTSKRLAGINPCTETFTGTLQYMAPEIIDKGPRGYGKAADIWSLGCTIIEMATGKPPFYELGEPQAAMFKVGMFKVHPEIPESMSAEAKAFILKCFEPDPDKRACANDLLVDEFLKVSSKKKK
FGFR2(h), sequence (P21802 456-770 limits assumed): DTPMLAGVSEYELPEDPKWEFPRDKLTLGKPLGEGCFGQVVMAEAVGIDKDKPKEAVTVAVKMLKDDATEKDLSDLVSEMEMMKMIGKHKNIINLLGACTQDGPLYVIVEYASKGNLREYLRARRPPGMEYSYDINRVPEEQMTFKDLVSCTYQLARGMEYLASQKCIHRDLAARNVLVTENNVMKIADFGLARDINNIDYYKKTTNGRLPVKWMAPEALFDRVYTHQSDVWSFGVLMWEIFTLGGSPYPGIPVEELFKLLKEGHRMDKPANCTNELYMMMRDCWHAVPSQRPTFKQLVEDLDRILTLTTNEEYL
PKBβ(h), sequence (P31751 whole entry): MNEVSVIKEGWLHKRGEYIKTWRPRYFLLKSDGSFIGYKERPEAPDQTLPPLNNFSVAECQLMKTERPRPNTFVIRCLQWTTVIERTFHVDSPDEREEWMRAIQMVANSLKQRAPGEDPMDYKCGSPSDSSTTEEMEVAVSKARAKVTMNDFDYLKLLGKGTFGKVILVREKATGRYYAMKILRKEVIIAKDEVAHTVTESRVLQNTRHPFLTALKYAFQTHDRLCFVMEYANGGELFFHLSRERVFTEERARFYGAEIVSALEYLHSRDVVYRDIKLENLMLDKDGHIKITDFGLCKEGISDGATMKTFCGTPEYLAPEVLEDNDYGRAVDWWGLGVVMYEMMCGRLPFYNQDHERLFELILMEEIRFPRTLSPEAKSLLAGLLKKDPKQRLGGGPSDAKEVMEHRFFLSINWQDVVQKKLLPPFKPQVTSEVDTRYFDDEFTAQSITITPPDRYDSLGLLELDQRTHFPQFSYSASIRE
SRPK1(h), sequence (Q96SB4 whole entry): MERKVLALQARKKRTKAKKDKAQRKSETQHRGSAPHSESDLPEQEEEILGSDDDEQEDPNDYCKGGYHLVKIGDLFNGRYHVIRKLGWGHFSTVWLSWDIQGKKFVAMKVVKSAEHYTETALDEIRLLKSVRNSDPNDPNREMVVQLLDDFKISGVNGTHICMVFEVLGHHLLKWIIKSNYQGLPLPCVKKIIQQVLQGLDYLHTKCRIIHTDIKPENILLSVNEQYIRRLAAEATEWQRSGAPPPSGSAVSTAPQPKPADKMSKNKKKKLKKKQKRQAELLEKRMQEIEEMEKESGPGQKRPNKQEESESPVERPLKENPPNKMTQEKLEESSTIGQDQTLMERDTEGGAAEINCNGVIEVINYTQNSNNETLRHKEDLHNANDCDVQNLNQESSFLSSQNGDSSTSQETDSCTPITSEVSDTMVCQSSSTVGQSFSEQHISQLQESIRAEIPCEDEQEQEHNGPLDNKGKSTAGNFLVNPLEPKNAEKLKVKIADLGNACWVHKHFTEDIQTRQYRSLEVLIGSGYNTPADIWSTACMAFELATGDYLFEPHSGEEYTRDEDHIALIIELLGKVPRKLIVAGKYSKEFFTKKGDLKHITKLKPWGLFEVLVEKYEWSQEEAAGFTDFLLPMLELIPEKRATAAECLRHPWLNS

Consider KAFAKLAARLYRKALARQLGVAA [MMI-0400], for which the “% activity” value with ASK1(h) turned out to be 69%; with SRPK1(h), 96%; with FGFR2(h) it was 18%; in the assay with DRAK1(h), 14%; with GRK6(h), 141%; with ULK3(h) it was 147%. The “% activity” value stood at 98% with PKBβ(h); 37% with Fms(h); 83% with CDK2/cyclinE(h); 89% with Rse(h); 77% with IGF-1R(h), activated; 195% with DYRK2(h).
For FAKLAARLYRKALARQLGVAA [MMI-0300], the “% activity” value came to 80% with ASK1(h); 90% with SRPK1(h); 14% in the assay with FGFR2(h); 14% with DRAK1(h); 147% with GRK6(h); 167% with ULK3(h). In addition, the “% activity” value stood at 84% in the assay with PKBβ(h); 45% in the assay with Fms(h); 94% with CDK2/cyclinE(h); 88% with Rse(h); 80% in the assay with IGF-1R(h), activated; 155% with DYRK2(h).
